According to patent US6506889 (UNIVERSITY TECHNOLOGY, dated 2003):

B1: C. elegans SUR-8 fused to the GAL4 activation domain (other, not shown: large carriers)
chain: METSKEFEFRPAKETSRSKSPGGIVGRLSNFARNKARHSLSEKGSNSVGGSGGAGFDKPRKDLLKEFHKCKEAQDQRLDLSSIEITSIPSPIKELTQLTELFLYKNKLTCLPTEIGQLVNLKKLGLSENALTSLPDSLASLESLETLDLRHNKLTEVPSVIYKIGSLETLWLRYNRIVAVDEQIGNLSKLKMLDVRENKIRELPSAIGKLTSLVVCLVSYNHLTRVPEEIGDCHSLTQLDLQHNDLSELPYSIGKLVNLVRIGIRYNKIRCIPSELESCQQLEEFIVESNHLQLLPPNLLTMLPKIHTVNLSRNELTAFPAGGPQQFVSTVTINMEHNQISKIPIGIFSKATRLTKLNLKENELVSLPLDMGSWTSITELNLSTNQLKVLPEDIEKLVNLEILVLSNNQLKKLPNQIGNLNKLRELDLEENELETVPTEIGFLQHLTKLWVQSNKILTLPRSIGNLCSLQDLRLGENNLTAIPEEIGHLDSLKSLYLNDNSSLHNLPFELALCQSLEIMSIENSPLSQIPPEITAGGPSLVIQYLKMQGPYRGVVMNSQ
notes: Yeast two-hybrid construct: 1.7 kb sur-8 cDNA cloned in-frame into pACT2; also called Ce SUR-8; wild-type SUR-8

Key:
[1] = target: T1, wild type LIN-45 Raf (yeast two-hybrid fusion) (C. elegans, UniProt Q07292 1-813); experiment: yeast two-hybrid
T1 construct: Tested against SUR-8 and against LET-60 Ras and its mutants; The constructs for the two tests may differ; not shown: two-hybrid fusion partner
T1 sequence (looked up): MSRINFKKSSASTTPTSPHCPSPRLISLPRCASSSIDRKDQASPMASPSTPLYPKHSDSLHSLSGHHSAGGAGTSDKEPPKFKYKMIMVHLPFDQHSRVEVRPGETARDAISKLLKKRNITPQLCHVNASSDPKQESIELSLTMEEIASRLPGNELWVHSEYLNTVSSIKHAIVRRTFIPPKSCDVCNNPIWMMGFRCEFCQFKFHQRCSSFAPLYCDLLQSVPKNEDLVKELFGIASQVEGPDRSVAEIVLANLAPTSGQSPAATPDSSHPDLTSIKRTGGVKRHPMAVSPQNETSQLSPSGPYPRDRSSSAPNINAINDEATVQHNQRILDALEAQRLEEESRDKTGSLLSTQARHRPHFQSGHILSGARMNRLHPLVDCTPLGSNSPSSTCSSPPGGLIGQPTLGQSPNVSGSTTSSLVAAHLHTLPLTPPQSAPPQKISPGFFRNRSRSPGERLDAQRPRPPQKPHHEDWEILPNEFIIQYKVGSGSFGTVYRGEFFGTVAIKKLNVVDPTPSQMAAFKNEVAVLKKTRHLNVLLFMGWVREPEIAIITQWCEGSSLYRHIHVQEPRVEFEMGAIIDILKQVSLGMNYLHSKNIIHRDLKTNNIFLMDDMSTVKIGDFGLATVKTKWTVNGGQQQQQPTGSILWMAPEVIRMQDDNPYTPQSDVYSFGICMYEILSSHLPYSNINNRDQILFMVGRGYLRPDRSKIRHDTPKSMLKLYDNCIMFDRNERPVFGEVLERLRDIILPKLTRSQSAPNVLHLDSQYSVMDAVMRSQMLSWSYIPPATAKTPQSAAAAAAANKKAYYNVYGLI

[2] = target: B1; experiment: yeast two-hybrid, His and LacZ reporters
[3] = target: T2, C. elegans SUR-8 ku242 C233Y (yeast two-hybrid fusion) (C. elegans, UniProt Q22875 1-559); experiment: yeast two-hybrid
T2 sequence: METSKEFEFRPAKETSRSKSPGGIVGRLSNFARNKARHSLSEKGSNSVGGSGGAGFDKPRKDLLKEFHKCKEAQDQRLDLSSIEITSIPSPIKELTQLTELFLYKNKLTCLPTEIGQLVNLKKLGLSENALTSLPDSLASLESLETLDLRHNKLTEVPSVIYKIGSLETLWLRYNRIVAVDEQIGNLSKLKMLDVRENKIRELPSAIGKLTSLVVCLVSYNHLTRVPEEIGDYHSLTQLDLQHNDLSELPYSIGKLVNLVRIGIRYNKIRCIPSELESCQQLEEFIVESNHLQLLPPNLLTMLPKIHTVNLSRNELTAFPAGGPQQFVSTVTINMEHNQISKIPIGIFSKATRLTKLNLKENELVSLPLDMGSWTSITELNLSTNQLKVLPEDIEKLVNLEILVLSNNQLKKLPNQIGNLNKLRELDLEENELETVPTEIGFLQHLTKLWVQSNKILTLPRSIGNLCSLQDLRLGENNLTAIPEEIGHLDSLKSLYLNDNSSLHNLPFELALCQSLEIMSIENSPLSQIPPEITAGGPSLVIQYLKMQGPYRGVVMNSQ

[4] = target: T3, C. elegans SUR-8 deletion mutant lacking the N-terminal 88 amino acid non-LRR region (C. elegans, UniProt Q22875 89-559); experiment: yeast two-hybrid
T3 construct: Range 89-559 is worked out from 'deletion of the N-terminal 88 amino acid' and the printed length of 559
T3 sequence: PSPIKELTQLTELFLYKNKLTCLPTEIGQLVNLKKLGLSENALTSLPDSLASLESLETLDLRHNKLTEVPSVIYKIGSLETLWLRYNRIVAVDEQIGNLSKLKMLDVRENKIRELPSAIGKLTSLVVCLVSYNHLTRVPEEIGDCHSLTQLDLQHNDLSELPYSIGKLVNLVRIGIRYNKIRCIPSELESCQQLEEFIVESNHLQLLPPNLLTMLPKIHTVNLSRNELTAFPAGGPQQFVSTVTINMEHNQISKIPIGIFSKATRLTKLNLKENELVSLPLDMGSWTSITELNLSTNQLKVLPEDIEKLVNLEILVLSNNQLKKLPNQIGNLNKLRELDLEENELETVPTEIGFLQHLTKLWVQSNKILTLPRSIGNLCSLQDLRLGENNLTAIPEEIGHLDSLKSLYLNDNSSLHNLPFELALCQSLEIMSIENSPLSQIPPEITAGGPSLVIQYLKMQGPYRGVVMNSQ

B1
binding result [1]: no binding

B2: MEK-2 MEK (yeast two-hybrid fusion) (enzyme, C. elegans, UniProt Q10664 1-387, looked up)
chain: MSSGKRRNPLGLSLPPTVNEQSESGEATAEEATATVPLEEQLKKLGLTEPQTQRLSEFLQVKEGIKELSEDMLQTEGELGHGNGGVVNKCVHRKTGVIMARKLVHLEIKPSVRQQIVKELAVLHKCNSPFIVGFYGAFVDNNDISICMEYMDGLSLDIVLKKVGRLPEKFVGRISVAVVRGLTYLKDEIKILHRDVKPSNMLVNSNGEIKLCDFGVSGMLIDSMANSFVGTRSYMAPERLTGSHYTISSDIWSFGLSLVELLIGRYPVPAPSQAEYATMFNVAENEIELADSLEEPNYHPPSNPASMAIFEMLDYIVNGPPPTLPKRFFTDEVIGFVSKCLRKLPSERATLKSLTADVFFTQYADHDDQGEFAVFVKGTINLPKLNP
notes: not shown: two-hybrid fusion partner
binding result [2]: no binding

B3: MPK-1 MAP kinase (yeast two-hybrid fusion) (enzyme, C. elegans, UniProt P39745-2 1-376, looked up)
chain: MADGEAVISTVNNVEEVHGQLFEVAPRYVNLSYIGEGAYGMVASALDTITRDRVAIKKISPFEHQTFCQRTLREIKILNRFKHENIINIQEIIRSETVDSLKDIYIVQCLMETDLYKLLKTQKLSNDHVCYFLYQILRGLKYIHSANVLHRDLKPSNLLLNTTCDLKICDFGLARVTDPQTDHTGFLTEYVATRWYRAPEIMLNSKGYTKSIDVWSVGCILAEMLSNRPLFPGKHYLDQLNLILAVVGSPSNADLQCIINDKARSYLISLPHKPKQPWARLYPGADPRALDLLDKMLTFNPHNRIDIEQALAHPYLEQYYDPGDEPVCEEPFTLEMEFDDLPKEKLKELIWEEAEAHHRRMEAEAAARNNGGQNPV
notes: as for B2
binding result [2]: no binding

B4: wild type LET-60 Ras fused to the GAL4 DNA binding domain (enzyme, UniProt P04386 1-147, looked up)
chain: MKLLSSIEQACDICRLKKLKCSKEKPKCAKCLKNNWECRYSPKTKRSPLTRAHLTEVESRLERLEQLFLLIFPREDLDMILKMDSLQDIKALLTGLFVQDNVNKDAVTDRLASVETDMPLTLRQHRISATSSSEESSNKGQRQLTVSMTEYKLVVVGDGGVGKSALTIQLIQNHFVEEYDPTIEDSYRKQVVIDGETCLLDILDTAGQEEYSAMRDQYMRTGEGFLLVFAVNEAKSFENVANYREQIRRVKDSDDVPMVLVGNKCDLSSRSVDFRTVSETAKGYGIPNVDTSAKTRMGVDEAFYTLVREIRKHRERHDNNKPQKKKKCQIM
binding result [3]: no binding
binding result [4]: no binding
